Measurements: paper PMC9672452

Assay: cell-surface N1, PE anti-Notch1 flow cytometry, CHO
Details: control: wild type

| Substance | expression_or_secretion (glycan gained) | expression_or_secretion (glycan lost) |
| --- | --- | --- |
| NOTCH1 (N1): N386T | no change |  |
| NOTCH1 (N1): T311P |  | decreases |
| NOTCH1 (N1): T349P |  | decreases |
